Measurements reported in US20230235005A1 (INHIBRX, published 2023).
Positions count from the first letter of the chain named. Names and notes keep the numbering of the source. Read-outs that look alike come from different tables or passages of the source. Blank lines part the entries; values can stand above or below the binder they belong to.

What was measured:
Histidine-tagged CD25 = biological target: T1, Histidine-tagged CD25 (UniProt P01589 22-217, limits assumed); assay: Biolayer Interferometry (ForteBio), immobilized His-tagged CD25
T1 construct: Immobilized in Biolayer Interferometry (ForteBio); not shown: histidine tag
T1 sequence (looked up): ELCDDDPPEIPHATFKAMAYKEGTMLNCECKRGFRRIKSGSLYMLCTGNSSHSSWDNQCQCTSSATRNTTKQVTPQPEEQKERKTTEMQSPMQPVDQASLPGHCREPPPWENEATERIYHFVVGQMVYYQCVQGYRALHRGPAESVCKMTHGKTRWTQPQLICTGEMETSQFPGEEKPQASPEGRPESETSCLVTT
Method: Polypeptides comprising a modified IL-2 fused to the C-terminus of a PD-1 binding VHH and control polypeptides were tested for binding to CD25 using Biolayer Interferometry (ForteBio).

[1] = biological target: T2, IL-2 receptor overexpressed on HEK-Blue IL-2 reporter cells (InvivoGen) (UniProt P01589 22-272; P14784 27-551; P31785 23-369, limits assumed); assay: cell-based or functional assay
T2 sequence (looked up) 1: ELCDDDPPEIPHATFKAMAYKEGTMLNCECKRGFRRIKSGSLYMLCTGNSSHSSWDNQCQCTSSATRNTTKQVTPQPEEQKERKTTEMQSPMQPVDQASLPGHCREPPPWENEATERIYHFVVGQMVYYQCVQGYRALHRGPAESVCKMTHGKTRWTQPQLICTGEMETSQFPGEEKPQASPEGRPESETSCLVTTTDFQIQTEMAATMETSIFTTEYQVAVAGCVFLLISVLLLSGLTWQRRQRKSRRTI
T2 sequence (looked up) 2: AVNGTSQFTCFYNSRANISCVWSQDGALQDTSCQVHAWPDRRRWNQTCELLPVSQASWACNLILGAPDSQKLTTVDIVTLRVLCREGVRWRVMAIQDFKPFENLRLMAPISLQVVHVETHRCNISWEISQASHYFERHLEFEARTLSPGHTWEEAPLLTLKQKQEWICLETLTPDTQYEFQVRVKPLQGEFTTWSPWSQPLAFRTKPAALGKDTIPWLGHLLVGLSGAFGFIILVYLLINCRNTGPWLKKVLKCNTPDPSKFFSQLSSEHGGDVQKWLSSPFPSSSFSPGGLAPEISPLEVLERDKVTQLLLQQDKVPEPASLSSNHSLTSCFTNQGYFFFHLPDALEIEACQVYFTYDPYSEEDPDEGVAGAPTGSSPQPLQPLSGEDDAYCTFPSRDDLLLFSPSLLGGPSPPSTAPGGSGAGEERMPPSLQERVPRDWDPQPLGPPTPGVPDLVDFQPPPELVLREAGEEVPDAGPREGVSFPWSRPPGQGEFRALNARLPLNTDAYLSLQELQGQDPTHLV
T2 sequence (looked up) 3: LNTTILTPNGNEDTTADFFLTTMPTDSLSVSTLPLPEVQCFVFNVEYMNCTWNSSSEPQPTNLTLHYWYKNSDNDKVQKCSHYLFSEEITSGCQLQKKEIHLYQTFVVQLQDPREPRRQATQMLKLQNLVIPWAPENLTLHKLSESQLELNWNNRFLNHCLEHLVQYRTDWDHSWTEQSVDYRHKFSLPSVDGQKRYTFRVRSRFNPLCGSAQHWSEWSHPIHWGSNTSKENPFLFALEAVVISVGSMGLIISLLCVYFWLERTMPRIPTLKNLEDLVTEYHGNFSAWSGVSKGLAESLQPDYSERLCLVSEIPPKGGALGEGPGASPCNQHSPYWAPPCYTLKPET

[2] = biological target: T3, PD-1 expressed on modified HEK-Blue IL-2 reporter cell clones (UniProt Q15116 25-288, limits assumed); assay: cell-based or functional assay
[3] = biological target: T4, CD122/CD132 (heterodimeric IL-2R) on transiently transfected 293F cells (UniProt P14784 27-551; P31785 23-369, limits assumed); assay: flow cytometry on transiently transfected 293F cells
T4 construct: whole, on cells; also called CD122 and CD132
T4 sequence (looked up) 1: T2 sequence (looked up) 2
T4 sequence (looked up) 2: T2 sequence (looked up) 3

[4] = biological target: T5, heterotrimeric IL-2R (CD25, CD122 and CD132) on transiently transfected 293F cells (UniProt P01589 22-272; P14784 27-551; P31785 23-369, limits assumed); assay: as above
T5 construct: whole, on cells
T5 sequence (looked up) 1: T2 sequence (looked up) 1
T5 sequence (looked up) 2: T2 sequence (looked up) 2
T5 sequence (looked up) 3: T2 sequence (looked up) 3

[5] = biological target: trimeric IL-2 receptor on HEK-Blue IL-2 reporter cells (UniProt P01589); assay: cell-based or functional assay
[6] = biological target: IL-2 receptor together with PD-1 on HEK-Blue IL-2 reporter cells expressing PD-1 (UniProt P01589); assay: cell-based or functional assay
[7] = biological target: trimeric IL-2 receptor (CD25, CD122, CD132) on HEK-Blue IL-2 reporter cells (UniProt P01589); assay: cell-based or functional assay
[8] = biological target: T3, PD-1 expressed on modified HEK-Blue …; assay: cell-based or functional assay; remark: listed apart in the source
[9] = biological target: T2, IL-2 receptor overexpressed on HEK-Blue …; assay: cell-based or functional assay; remark: listed apart in the source
[10] = biological target: T3, PD-1 expressed on modified HEK-Blue …; assay: cell-based or functional assay; remark: listed apart in the source
[11] = biological target: T2, IL-2 receptor overexpressed on HEK-Blue …; assay: cell-based or functional assay; remark: listed apart in the source
[12] = biological target: T3, PD-1 expressed on modified HEK-Blue …; assay: cell-based or functional assay; remark: listed apart in the source
[13] = biological target: T2, IL-2 receptor overexpressed on HEK-Blue …; assay: cell-based or functional assay; remark: listed apart in the source
[14] = biological target: T3, PD-1 expressed on modified HEK-Blue …; assay: cell-based or functional assay; remark: listed apart in the source
[15] = biological target: T3, PD-1 expressed on modified HEK-Blue …; assay: cell-based or functional assay; remark: listed apart in the source
[16] = biological target: T2, IL-2 receptor overexpressed on HEK-Blue …; assay: cell-based or functional assay; remark: listed apart in the source
[17] = biological target: T2, IL-2 receptor overexpressed on HEK-Blue …; assay: cell-based or functional assay; remark: listed apart in the source
[18] = biological target: T3, PD-1 expressed on modified HEK-Blue …; assay: cell-based or functional assay; remark: listed apart in the source
[19] = biological target: T2, IL-2 receptor overexpressed on HEK-Blue …; assay: cell-based or functional assay; remark: listed apart in the source

Chain of IL-2 receptor together with PD-1 on HEK-Blue IL-2 reporter cells expressing PD-1 (Q15116 25-288 limits assumed): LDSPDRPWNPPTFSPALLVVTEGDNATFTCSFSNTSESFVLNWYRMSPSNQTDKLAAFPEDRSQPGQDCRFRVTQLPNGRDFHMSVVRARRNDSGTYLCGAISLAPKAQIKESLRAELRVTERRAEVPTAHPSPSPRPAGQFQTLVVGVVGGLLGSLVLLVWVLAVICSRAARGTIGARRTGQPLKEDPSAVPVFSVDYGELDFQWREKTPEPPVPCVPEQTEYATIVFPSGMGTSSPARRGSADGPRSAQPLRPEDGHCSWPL
T3 sequence (Q15116 25-288 limits assumed): as above

B1: polypeptide comprising modified IL-2 (T3A, H16A, Δ42, P65R, D84S, C125S) fused to the C-terminus of a PD-1-binding VHH (other, not shown: a dimerising Fc or GST; small tags and cut ends)
chain: APASSSTKKTQLQLEALLLDLQMILNGINNYKNPKLTRMLTKFYMPKKATELKHLQCLEEELKRLEEVLNLAQSKNFHLRPRSLISNINVIVLELKGSETTFMCEYADETATIVEFLNRWITFSQSIISTLT
notes: also called IL-2-T3A-H16A-ΔF42-P65R-D84S-C125S
binding result (Histidine-tagged CD25): no binding (tested: 300 nM) | EC50 (nM), HEK-Blue IL-2 reporter cells lacking PD-1 [1]: 4.2 nM | EC50 (nM), IL-2 reporter cells expressing PD-1 [2]: 0.005 nM

B2: fusion protein comprising triple mutant IL-2 P65R-H16A-D84S (IL-2-RAS) fused to the N-terminus of the knob half of a heterodimeric Fc, paired with a hole Fc (Fc fusion)
chain 1: APTSSSTKKTQLQLEALLLDLQMILNGINNYKNPKLTRMLTFKFYMPKKATELKHLQCLEEELKRLEEVLNLAQSKNFHLRPRSLISNINVIVLELKGSETTFMCEYADETATIVEFLNRWITFCQSIISTLTPGGGGDKTHTCPPCPAPGGPSVFLFPPKPKDTLMISRTPEVTCVVVDVSHEDPEVKFNWYVDGVEVHNAKTKPREEQYNSTYRVVSVLTVLHQDWLNGKEYKCKVSNKALPAPIEKTISKAKGQPREPQVYTLPPCRDELTKNQVSLWCLVKGFYPSDIAVEWESNGQPENNYKTTPPVLDSDGSFFLYSKLTVDKSRWQQGNVFSCSVMHEALHNHYTQKSLSLSPGK
chain 2: KPGGGGDKTHTCPPCPAPGGPSVFLFPPKPKDTLMRSRTPEVTCVVVDVSHEDPEVKFNWYVDGVEVHNAKTKPREEQYNSTYRVVSVLTVLHQDWLNGKEYKCKVSNKALPAPIEKTISKAKGQPREPQVCTLPPSRDELTKNQVSLSCAVKGFYPSDIAVEWESNGQPENNYKTTPPVLDSDGSFFLVSKLTVDKSRWQQGNVFSCSVMHEALHNHYTQKSLSLSPGK
notes: also called IL-2-RAS-xELL knob Fc
binding result [3]: binds | binding result [4]: binds

B3: polypeptide comprising modified IL-2 (T3A, H16A, E61R, P65R, D84S, C125S) fused to the C-terminus of a PD-1-binding VHH (other, not shown: a dimerising Fc or GST; small tags and cut ends)
chain: APASSSTKKTQLQLEALLLDLQMILNGINNYKNPKLTRMLTFKFYMPKKATELKHLQCLERELKRLEEVLNLAQSKNFHLRPRSLISNINVIVLELKGSETTFMCEYADETATIVEFLNRWITFSQSIISTLT
binding result (Histidine-tagged CD25): no binding (tested: 300 nM) | EC50 (nM), HEK-Blue IL-2 reporter cells lacking PD-1 [1]: 3.2 nM | EC50 (nM), IL-2 reporter cells expressing PD-1 [2]: 0.002 nM | Non-targeted EC50 [5]: 3.18 nM | PD-1 Targeted EC50 [6]: 2 pM | PD-1 Window [6]: 1570

B5: polypeptide comprising modified IL-2 (T3A, H16A, R38A, P65R, D84S, C125S) fused to the C-terminus of a PD-1-binding VHH (other, not shown: a dimerising Fc or GST; small tags and cut ends)
chain: B3 chain with R38A, R61E
binding result (Histidine-tagged CD25): no binding (tested: 300 nM) | EC50 (nM), HEK-Blue IL-2 reporter cells lacking PD-1 [1]: 2 nM | EC50 (nM), IL-2 reporter cells expressing PD-1 [2]: 0.002 nM | Non-targeted EC50 [5]: 1.97 nM | PD-1 Targeted EC50 [6]: 2 pM | PD-1 Window [6]: 978

B6: polypeptide comprising modified IL-2 (T3A, H16A, K43E, Y45R, P65R, D84S, C125S) fused to the C-terminus of a PD-1-binding VHH (other, not shown: a dimerising Fc or GST; small tags and cut ends)
chain: B3 chain with K43E, Y45R, R61E
binding result (Histidine-tagged CD25): no binding (tested: 300 nM) | EC50 (nM), HEK-Blue IL-2 reporter cells lacking PD-1 [1]: 1.5 nM | EC50 (nM), IL-2 reporter cells expressing PD-1 [2]: 0.002 nM

Continued, values first:

CD8a Targeted EC50, IL-2 reporter cells expressing CD8a (secreted alkaline phosphatase) [7]: 0.011 nM | Non-targeted EC50, HEK-Blue IL-2 reporter cells lacking PD-1, NKp46 and CD8a (secreted alkaline phosphatase) [7]: 4.51 nM
B4: polypeptide comprising modified IL-2 (T3A, H16A, E61R, P65R, D84Y, C125S) fused to the C-terminus of a CD8a-binding VHH (protein, part only; not given: CD8a-binding VHH and any linker or Fc, part only)
chain, part: B3 chain with S84Y

EC50 (nM), HEK-Blue IL-2 + PD-1 [8]: 0.003 nM | EC50 (nM), HEK-Blue IL-2 [9]: 0.3 nM | EC50 (nM), HEK-Blue IL-2 reporter cells lacking PD-1 [1]: 0.9 nM | EC50 (nM), IL-2 reporter cells expressing PD-1 [2]: 0.001 nM | EC50 (nM), HEK-Blue IL-2 + PD-1 [10]: 0.001 nM | EC50 (nM), HEK-Blue IL-2 [11]: 0.512 nM | EC50 (nM), HEK-Blue IL-2 + PD-1 [12]: 0.001 nM | EC50 (nM), HEK-Blue IL-2 [13]: 0.512 nM | EC50 (nM), IL-2 reporter cells expressing PD-1 [14]: 0.001 nM | EC50 (nM), HEK-Blue IL-2 + PD-1 [15]: 0.003 nM | EC50 (nM), HEK-Blue IL-2 [16]: 0.3 nM | EC50 (nM), HEK-Blue IL-2 reporter cells lacking PD-1 [17]: 0.9 nM | EC50 (nM), HEK-Blue IL-2 + PD-1 [18]: 0.001 nM | EC50 (nM), HEK-Blue IL-2 [19]: 0.512 nM
B7: polypeptide comprising modified IL-2 (T3A, H16A, P65R, D84S, C125S) fused to the C-terminus of a PD-1-binding VHH (other, not shown: a dimerising Fc or GST; small tags and cut ends)
chain: B3 chain with R61E

binding result (Histidine-tagged CD25): no binding (tested: 300 nM) | EC50 (nM), HEK-Blue IL-2 reporter cells lacking PD-1 [1]: 1.4 nM | EC50 (nM), IL-2 reporter cells expressing PD-1 [2]: 0.002 nM
B8: polypeptide comprising modified IL-2 (T3A, H16A, P65R, D84S, I114F, C125S) fused to the C-terminus of a PD-1-binding VHH (other, not shown: a dimerising Fc or GST; small tags and cut ends)
chain: B3 chain with R61E, I114F

binding result (Histidine-tagged CD25): no binding (tested: 300 nM) | EC50 (nM), HEK-Blue IL-2 reporter cells lacking PD-1 [1]: 1.1 nM | EC50 (nM), IL-2 reporter cells expressing PD-1 [2]: 0.001 nM
B9: polypeptide comprising modified IL-2 (T3A, H16A, K43E, P65R, D84S, C125S) fused to the C-terminus of a PD-1-binding VHH (other, not shown: a dimerising Fc or GST; small tags and cut ends)
chain: B3 chain with K43E, R61E

EC50 (nM), HEK-Blue IL-2 reporter cells lacking PD-1 [1]: 2.1 nM | EC50 (nM), IL-2 reporter cells expressing PD-1 [2]: 0.003 nM
B10: polypeptide comprising modified IL-2 (T3A, H16A, F42R, P65R, D84S, C125S) fused to the C-terminus of a PD-1-binding VHH (other, not shown: a dimerising Fc or GST; small tags and cut ends)
chain: B3 chain with F42R, R61E
